Like-named read-outs stand apart in the source and are kept apart here.

The target in assay [1] is N-terminus of influenza B nucleoprotein (B/NP_(1-70)) (influenza B virus (strain B/Memphis/13/03)). The assay can be described thus: ITC; MicroCal ITC200; 16 × 2.4 µL injections of 150 µM importin-α7 into 20 µM B/NP_TAIL; 20 mM Tris-HCl pH 7.5, 150 mM NaCl; 20 °C by the methods (25 °C by the legend of Figure 6); triplicate; single-binding site model.
For assay [2], the target named is importin-α1 (Mus musculus) (UniProt P52293). The note with it: cited from earlier work.
For assay [3] the target is unchanged. The note with it: cited from earlier work. The source holds these as a separate data set.

N-terminus of influenza B nucleoprotein (B/NP_(1-70)) (influenza B virus (strain B/Memphis/13/03)), sequence (P04665 1-70): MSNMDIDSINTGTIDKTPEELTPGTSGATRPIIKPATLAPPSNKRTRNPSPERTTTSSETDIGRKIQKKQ

Consider “human importin-α7 (from UniProt O60684 1-536) (natural protein)”, for which, in assay [1], the Kd worked out at 844 nM and the stoichiometry N worked out at 1.
As to “influenza A nucleoprotein NLS2 213-216 (from UniProt Q289M3)”, the Kd in assay [2] was 70 µM.
Take “influenza A nucleoprotein tail NTAIL (from UniProt Q289M3)”: in assay [3], the Kd is 1700 nM.

(Values after paper PMC5719345.)
